Experimental data from publication PMC12170873, “The Spc105/Kre28 complex promotes mitotic error correction by outer kinetochore recruitment of Ipl1/Sli15” (The EMBO Journal, 2025).

T1: Spc105-Flag/Kre28 complex (S. cerevisiae, UniProt P53148 1-917; Q04431 1-385)
T1 construct: Spc105 (Knl1 homologue), S. cerevisiae; Kre28 (Zwint homologue), S. cerevisiae, wild type; the asterisk is not explained; A potential proteolysis product of full-length Spc105 is marked in the gels; also called Spc105/Kre28; K subcomplex; source: Sf9 insect cells (baculovirus pFAP10), purified on anti-Flag M2 beads; also as part of the co-expressed KMN network (KT1-5 and KT1-6); not shown: Flag, …
T1 sequence (looked up) 1: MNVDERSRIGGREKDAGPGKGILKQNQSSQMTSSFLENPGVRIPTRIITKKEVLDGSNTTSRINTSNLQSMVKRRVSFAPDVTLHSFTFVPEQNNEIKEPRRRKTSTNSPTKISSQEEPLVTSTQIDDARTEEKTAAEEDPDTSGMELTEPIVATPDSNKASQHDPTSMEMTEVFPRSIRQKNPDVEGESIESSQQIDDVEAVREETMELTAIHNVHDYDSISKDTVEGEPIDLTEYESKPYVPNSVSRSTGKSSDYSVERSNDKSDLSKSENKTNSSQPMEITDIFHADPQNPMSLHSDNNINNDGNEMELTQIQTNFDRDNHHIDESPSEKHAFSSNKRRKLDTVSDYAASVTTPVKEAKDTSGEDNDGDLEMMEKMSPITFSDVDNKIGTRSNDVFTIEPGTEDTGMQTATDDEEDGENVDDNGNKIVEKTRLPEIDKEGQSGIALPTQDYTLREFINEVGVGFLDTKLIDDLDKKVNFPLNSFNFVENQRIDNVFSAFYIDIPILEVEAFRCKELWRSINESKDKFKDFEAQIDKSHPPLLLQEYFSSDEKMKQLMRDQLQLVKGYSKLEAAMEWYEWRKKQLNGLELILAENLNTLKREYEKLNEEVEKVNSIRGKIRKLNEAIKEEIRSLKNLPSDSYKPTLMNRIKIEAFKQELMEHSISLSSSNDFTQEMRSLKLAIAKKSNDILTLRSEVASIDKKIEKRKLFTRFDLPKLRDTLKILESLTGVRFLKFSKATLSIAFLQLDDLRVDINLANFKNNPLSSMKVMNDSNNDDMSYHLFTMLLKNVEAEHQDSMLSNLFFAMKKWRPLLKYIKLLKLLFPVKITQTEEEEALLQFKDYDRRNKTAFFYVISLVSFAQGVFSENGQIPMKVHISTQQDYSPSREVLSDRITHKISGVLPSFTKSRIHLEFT
T1 sequence (looked up) 2: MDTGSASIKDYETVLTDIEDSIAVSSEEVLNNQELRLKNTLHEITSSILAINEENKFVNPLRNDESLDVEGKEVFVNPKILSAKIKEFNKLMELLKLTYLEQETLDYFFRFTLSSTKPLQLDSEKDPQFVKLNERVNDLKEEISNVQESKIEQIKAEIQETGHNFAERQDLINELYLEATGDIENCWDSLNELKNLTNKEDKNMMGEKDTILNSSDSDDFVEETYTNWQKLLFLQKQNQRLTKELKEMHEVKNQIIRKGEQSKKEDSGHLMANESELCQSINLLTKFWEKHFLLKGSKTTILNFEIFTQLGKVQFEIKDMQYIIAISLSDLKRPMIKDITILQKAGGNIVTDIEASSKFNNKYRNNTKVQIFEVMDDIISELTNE


How the values were obtained:
Conditions in all cases: both partners purified
[1] = biological target: T1, Spc105-Flag/Kre28 complex; test: pull-down; KMN or its subcomplexes from Sf9 cells immobilised on anti-Flag M2 beads; 100 µl of 2 µM Ipl1/Sli15 added to ~20 µl beads; 4 °C, 6 h; 25 mM HEPES pH 7.4, 200 mM NaCl, 1 mM MgCl2, 2.5% glycerol, 0.01% Tween-20; eluted with 3xFlag peptide; Coomassie and anti-His blot; also done with prolonged incubation times (Fig. EV3A)
[2] = biological target: T2, recombinant KMN network containing Kre28^ΔZwint (S. cerevisiae, UniProt P53148 1-917; Q04431 1-385; P39731 1-289; P40568 1-576; P47149 1-201; Q12143 …, ΔZwint (Zwint helix, residues 77–113)); test: as above
T2 construct: Spc105 (Knl1 homologue), S. cerevisiae; Mtw1, S. cerevisiae; Dsn1, S. cerevisiae; Nnf1, S. cerevisiae; Nsl1, S. cerevisiae; Ndc80, S. cerevisiae; Nuf2, S. cerevisiae; Spc24, S. cerevisiae; Spc25, S. cerevisiae; also called Kre28^ΔZwint KMN network; mutant KMN network; source: Sf9 insect cells, baculoviruses KT1-5 and KT1-6 mut, purified via Spc105-Flag on anti-Flag M2 beads; not shown: Flag, …

[3] = biological target: T3, recombinant budding yeast KMN network (Spc105-Flag/Kre28^WT, Mtw1 complex, Ndc80 complex) (S. cerevisiae, UniProt P53148 1-917; Q04431 1-385; P39731 1-289; P40568 1-576; P47149 1-201; Q12143 …); test: cross-linking; recombinant KMN and Ipl1/Sli15 mixed at equimolar amounts, BS3 (d0/d12), 35 °C, 30 min; cross-links identified by mass spectrometry (xQuest)
T3 construct: Spc105 (Knl1 homologue), S. cerevisiae; Kre28 (Zwint homologue), S. cerevisiae, wild type; Mtw1, S. cerevisiae; Dsn1, S. cerevisiae; Nnf1, S. cerevisiae; Nsl1, S. cerevisiae; Ndc80, S. cerevisiae; Nuf2, S. cerevisiae; Spc24, S. cerevisiae; Spc25, S. cerevisiae; also called wild-type Kre28 KMN network; not shown: Flag, C-terminal, kept; copies: + + + + + + + + +

binding result [1]	binding result [2]	binding result [3]	Binder
binds			Ipl1/6xHis-Sli15 complex, dephosphorylated by λ phosphatase (complex, S. cerevisiae, dephosphorylated by λ phosphatase | dephosphorylated by λ phosphatase, Ipl1 (Aurora B homologue), S. cerevisiae; Sli15 (INCENP homologue), S. cerevisiae; also called Lambda phosphatase-treated Ipl1/Sli15; source: E. coli BL21, purified (HisTrap, SEC), then treated with λ-Protein Phosphatase (NEB) at 30 °C for 30 min) chain 1: MQRNSLVNIKLNANSPSKKTTTRPNTSRINKPWRISHSPQQRNPNSKIPSPVREKLNRLPVNNKKFLDMESSKIPSPIRKATSSKMIHENKKLPKFKSLSLDDFELGKKLGKGKFGKVYCVRHRSTGYICALKVMEKEEIIKYNLQKQFRREVEIQTSLNHPNLTKSYGYFHDEKRVYLLMEYLVNGEMYKLLRLHGPFNDILASDYIYQIANALDYMHKKNIIHRDIKPENILIGFNNVIKLTDFGWSIINPPENRRKTVCGTIDYLSPEMVESREYDHTIDAWALGVLAFELLTGAPPFEEEMKDTTYKRIAALDIKMPSNISQDAQDLILKLLKYDPKDRMRLGDVKMHPWILRNKPFWENKRL chain 2: MDWAIKAARKKTQRKPGSTRSIIETLDDLNNLTTDAHSEINQRLYESSEWLRNNVYMNTLKYEDKKMEESLISPENTHNKMDVEFPKMKGEYELSNSQNDAAKDVTKTPRNGLHNDKSITPKSLRRKEVTEGMNRFSIHDTNKSPVEPLNSVKVDANESEKSSPWSPYKVEKVLRESSKTSESPINTKRFDNQTWAAKEEMENEPILQALKKAESVKVKPPPNSGIARSQRRSNMFVPLPNKDPLIIQHIPPTKSSGSIPKVRTVKESPIAFKKKSTINSPAIRAVENSDTAGSTKASSVFDRLSSIPTKSFENKISRGNVGHKYSSSSIDLTGSPMKKVSQKFKSINSTDTDMQEALRDIFSVKNKITKNNSPKGKNSRKSSIPRFDKTSLKLTTHKKLAIIAEQKKKSKHSSDVHKTGSRPHSISPTKISVDSSSPSKEVKNYYQSPVRGYLRPTKASISPNKNKNLTTSQTPHRLKIKEKTLRKLSPNIADISKPESRKSKNYRLTNLQLLPPAEAERDDLKKKFDKRLSGIMRSQQEHHRRKQEKQKRMSHLEQDLKKQTSFSNDYKDIRLKESLAPFDNHVRDTINKNTAFSTDNILATINTVDHREIIGNVTPKIASVNDSLPEINTDSEDEASVTLAAWAKSPYLQEQLIRQQDINPQTIFGPIPPLHTDEIFPNPRLNRLKPRQIVPKRS
binds	binds	binds	Ipl1/6xHis-Sli15 complex (wild type, untreated) (complex, S. cerevisiae, Ipl1 (Aurora B homologue), S. cerevisiae; Sli15 (INCENP homologue), S. cerevisiae; the full-length form was preferentially pulled down; also called Ipl1/Sli15; Ipl1/Sli15 complex; source: E. coli BL21, purified (HisTrap, SEC on Superdex 200)) chain 1: MQRNSLVNIKLNANSPSKKTTTRPNTSRINKPWRISHSPQQRNPNSKIPSPVREKLNRLPVNNKKFLDMESSKIPSPIRKATSSKMIHENKKLPKFKSLSLDDFELGKKLGKGKFGKVYCVRHRSTGYICALKVMEKEEIIKYNLQKQFRREVEIQTSLNHPNLTKSYGYFHDEKRVYLLMEYLVNGEMYKLLRLHGPFNDILASDYIYQIANALDYMHKKNIIHRDIKPENILIGFNNVIKLTDFGWSIINPPENRRKTVCGTIDYLSPEMVESREYDHTIDAWALGVLAFELLTGAPPFEEEMKDTTYKRIAALDIKMPSNISQDAQDLILKLLKYDPKDRMRLGDVKMHPWILRNKPFWENKRL chain 2: MDWAIKAARKKTQRKPGSTRSIIETLDDLNNLTTDAHSEINQRLYESSEWLRNNVYMNTLKYEDKKMEESLISPENTHNKMDVEFPKMKGEYELSNSQNDAAKDVTKTPRNGLHNDKSITPKSLRRKEVTEGMNRFSIHDTNKSPVEPLNSVKVDANESEKSSPWSPYKVEKVLRESSKTSESPINTKRFDNQTWAAKEEMENEPILQALKKAESVKVKPPPNSGIARSQRRSNMFVPLPNKDPLIIQHIPPTKSSGSIPKVRTVKESPIAFKKKSTINSPAIRAVENSDTAGSTKASSVFDRLSSIPTKSFENKISRGNVGHKYSSSSIDLTGSPMKKVSQKFKSINSTDTDMQEALRDIFSVKNKITKNNSPKGKNSRKSSIPRFDKTSLKLTTHKKLAIIAEQKKKSKHSSDVHKTGSRPHSISPTKISVDSSSPSKEVKNYYQSPVRGYLRPTKASISPNKNKNLTTSQTPHRLKIKEKTLRKLSPNIADISKPESRKSKNYRLTNLQLLPPAEAERDDLKKKFDKRLSGIMRSQQEHHRRKQEKQKRMSHLEQDLKKQTSFSNDYKDIRLKESLAPFDNHVRDTINKNTAFSTDNILATINTVDHREIIGNVTPKIASVNDSLPEINTDSEDEASVTLAAWAKSPYLQEQLIRQQDINPQTIFGPIPPLHTDEIFPNPRLNRLKPRQIVPKRS
binds			Ipl1/6xHis-Sli15^4E complex (complex, S. cerevisiae, Ipl1 (Aurora B homologue), S. cerevisiae; Sli15 (INCENP homologue), S. cerevisiae, 4E mutant (plasmid pAD146 in pETDuett); also called Sli15^4E mutant; Sli15 R231E R232E L239E K242E; source: E. coli BL21, purified (HisTrap, SEC on Superdex 200)) chain 1: MQRNSLVNIKLNANSPSKKTTTRPNTSRINKPWRISHSPQQRNPNSKIPSPVREKLNRLPVNNKKFLDMESSKIPSPIRKATSSKMIHENKKLPKFKSLSLDDFELGKKLGKGKFGKVYCVRHRSTGYICALKVMEKEEIIKYNLQKQFRREVEIQTSLNHPNLTKSYGYFHDEKRVYLLMEYLVNGEMYKLLRLHGPFNDILASDYIYQIANALDYMHKKNIIHRDIKPENILIGFNNVIKLTDFGWSIINPPENRRKTVCGTIDYLSPEMVESREYDHTIDAWALGVLAFELLTGAPPFEEEMKDTTYKRIAALDIKMPSNISQDAQDLILKLLKYDPKDRMRLGDVKMHPWILRNKPFWENKRL chain 2: MDWAIKAARKKTQRKPGSTRSIIETLDDLNNLTTDAHSEINQRLYESSEWLRNNVYMNTLKYEDKKMEESLISPENTHNKMDVEFPKMKGEYELSNSQNDAAKDVTKTPRNGLHNDKSITPKSLRRKEVTEGMNRFSIHDTNKSPVEPLNSVKVDANESEKSSPWSPYKVEKVLRESSKTSESPINTKRFDNQTWAAKEEMENEPILQALKKAESVKVKPPPNSGIARSQEESNMFVPEPNEDPLIIQHIPPTKSSGSIPKVRTVKESPIAFKKKSTINSPAIRAVENSDTAGSTKASSVFDRLSSIPTKSFENKISRGNVGHKYSSSSIDLTGSPMKKVSQKFKSINSTDTDMQEALRDIFSVKNKITKNNSPKGKNSRKSSIPRFDKTSLKLTTHKKLAIIAEQKKKSKHSSDVHKTGSRPHSISPTKISVDSSSPSKEVKNYYQSPVRGYLRPTKASISPNKNKNLTTSQTPHRLKIKEKTLRKLSPNIADISKPESRKSKNYRLTNLQLLPPAEAERDDLKKKFDKRLSGIMRSQQEHHRRKQEKQKRMSHLEQDLKKQTSFSNDYKDIRLKESLAPFDNHVRDTINKNTAFSTDNILATINTVDHREIIGNVTPKIASVNDSLPEINTDSEDEASVTLAAWAKSPYLQEQLIRQQDINPQTIFGPIPPLHTDEIFPNPRLNRLKPRQIVPKRS
